The target of this experiment is RNA-binding protein EWS low-complexity domain (EWS^LCD, residues 1-264) (UniProt Q01844). Briefly: condensate partitioning assay.

In publication PMC12451834 one finds percent (w/w) co-partitioned into condensates with EWS^LCD data, which are given here for 1 substance.

“EWS^RRM-RGG2 (central RNA-binding region of EWS: RNA-recognition motif and RGG2 domain) (domain or fragment)” returned a percent (w/w) co-partitioned into condensates with EWS^LCD of 53 % w/w.
